Data taken from US20190142971A1, “FORMULATION AND DELIVERY OF MODIFIED NUCLEOSIDE, NUCLEOTIDE, AND NUCLEIC ACID COMPOSITIONS” (ModernaTX, Inc., priority 2013, published 2019).

Experiments:
rats = test: Example 17: LNP IV, IM, SC in rats, serum EPO/G-CSF ELISA (Table 34); type: in vivo; conditions: for EPO / G-CSF Serum Concentration: LNP 0.05 mg/kg
Method: (§1) Formulations, listed in Table 33, were characterized by particle size, zeta potential, and encapsulation.
LNP formulations, shown in Table 33 (above), were administered to rats (n=5) intravenously (IV), intramuscularly (IM) or subcutaneously (SC) at a single modified mRNA dose of 0.05 mg/kg. A control group of rats (n=4) was untreated. […] The rats administered EPO modified mRNA intravenously were also bled at 7 days.

[1] = test system: peripheral blood mononuclear cells (PBMC); type: cell-based, human; conditions: three human PBMC donors
Method: 500 ng of G-CSF mRNA modified with 5-methylcytosine (5mC) and pseudouridine (pseudoU) or unmodified G-CSF mRNA was transfected with 0.4 uL of Lipofectamine 2000 into peripheral blood mononuclear cells (PBMC) from three normal blood donors (D1, D2, and D3). […] The supernatant was harvested 6 hours and 18 hours after transfection and run by ELISA to determine the protein expression. The expression of G-CSF, IFN-alpha, and TNF-alpha for Donor 1 is shown in Table 88, Donor 2 is shown in Table 89 and Donor 3 is shown in Table 90.

[2] = test system: non-human primates (cynomolgus monkey); test: Example 21: LNP IV in non-human primates, serum EPO/G-CSF ELISA (Table 37); type: in vivo; conditions: for Average Serum Concentration / Female NHP Serum Concentration / Male NHP Serum Concentration: 0.05 mg/kg IV
Method: as §1
LNP formulations, shown in Table 33 (above), were administered to non-human primates (NHP) (cynomolgus monkey) (n=2) as a bolus intravenous injection (IV) over approximately 30 seconds using a hypodermic needle, which may be attached to a syringe/abbocath or butterfly if needed. The NHP were administered a single modified mRNA IV dose of 0.05 mg/kg of EPO or G-CSF or 0.005 mg/kg of EPO in a dose volume of 0.5 mL/kg. The NHPs were bled 5-6 days before dosing with the modified mRNA LNP formulations to determine protein expression in the serum and a baseline complete blood count. After administration with the modified mRNA formulation the NHP were bled at 8, 24, 48 and 72 hours to determined protein expression. At 24 and 72 hours after administration the complete blood count of the NHP was also determined. Protein expression of G-CSF and EPO was determined by ELISA. Urine from the NHPs was collected over the course of the entire experiment and analyzed to evaluate clinical safety. Samples were collected from the NHPs after they were administered with G-CSF or EPO modified mRNA formulations to determine protein expression using ELISA. Clinical chemistry, hematology, urinalysis and cytokines of the non-human primates were also analyzed.

mice = test: Example 40: multi-site IM/SC G-CSF mRNA in mice, neutrophil count (Table 65); type: in vivo; conditions: intramuscular, day 3
Method: Injection of four doses or 2×50 ug (two sites) daily for three days (24 hrs interval) was performed. The fourth dose was administered 6 hrs before blood collection and CBC analysis. […] The mice were bled at 72 hours after the first mRNA injection (6 hours after the last mRNA dose) to determine the effect of mRNA-encoded human G-CSF on the neutrophil count. The dosing regimen is shown in Table 65 as are the resulting neutrophil counts (thousands/uL). In Table 65, an asterisks (*) indicate statistical significance at p<0.05.

Sprague Dawley rats = test: Example 60: G-CSF/Factor IX mRNA IM in rats, serum G-CSF ELISA (Table 94); type: in vivo; conditions: I.M., 400 ug in 100 ul, 5% sucrose, 8 hours after injection
Method: Protein production of modified mRNA was evaluated by delivering modified G-CSF mRNA or modified Factor IX mRNA to female Sprague Dawley rats (n=6). […] Blood was collected 8 hours after injection and the G-CSF protein level in serum was measured by ELISA.

B1: G-CSF: modified mRNA encoding human G-CSF, SEQ ID NO: 4, Cap1, fully modified with 5-methylcytosine and pseudouridine; LNP-formulated in Examples 16-22 (nucleic acid)
chain: GGGAAAUAAGAGAGAAAAGAAGAGUAAGAAGAAAUAUAAGAGCCACCAUGGCCGGUCCCGCGACCCAAAGCCCCAUGAAACUUAUGGCCCUGCAGUUGCUGCUUUGGCACUCGGCCCUCUGGACAGUCCAAGAAGCGACUCCUCUCGGACCUGCCUCAUCGUUGCCGCAGUCAUUCCUUUUGAAGUGUCUGGAGCAGGUGCGAAAGAUUCAGGGCGAUGGAGCCGCACUCCAAGAGAAGCUCUGCGCGACAUACAAACUUUGCCAUCCCGAGGAGCUCGUACUGCUCGGGCACAGCUUGGGGAUUCCCUGGGCUCCUCUCUCGUCCUGUCCGUCGCAGGCUUUGCAGUUGGCAGGGUGCCUUUCCCAGCUCCACUCCGGUUUGUUCUUGUAUCAGGGACUGCUGCAAGCCCUUGAGGGAAUCUCGCCAGAAUUGGGCCCGACGCUGGACACGUUGCAGCUCGACGUGGCGGAUUUCGCAACAACCAUCUGGCAGCAGAUGGAGGAACUGGGGAUGGCACCCGCGCUGCAGCCCACGCAGGGGGCAAUGCCGGCCUUUGCGUCCGCGUUUCAGCGCAGGGCGGGUGGAGUCCUCGUAGCGAGCCACCUUCAAUCAUUUUUGGAAGUCUCGUACCGGGUGCUGAGACAUCUUGCGCAGCCGUGAAGCGCUGCCUUCUGCGGGGCUUGCCUUCUGGCCAUGCCCUUCUUCUCUCCCUUGCACCUGUACCUCUUGGUCUUUGAAUAAAGCCUGAGUAGGAAG
modifications: Cap1, 5-methylcytosine, pseudouridine
protein expression detectable out to (rats; IV): 7 days
EPO / G-CSF Serum Concentration (rats; IM, 2 hours): 1620.4 pg/mL
EPO / G-CSF Serum Concentration (rats; IM, 8 hours): 7910.4 pg/mL
EPO / G-CSF Serum Concentration (rats; IM, 24 hours): 893.3 pg/mL
EPO / G-CSF Serum Concentration (rats; IM, 48 hours): OSC
EPO / G-CSF Serum Concentration (rats; IM, 5 days): OSC
EPO / G-CSF Serum Concentration (rats; IV, 2 hours): 31,331.9 pg/ml
EPO / G-CSF Serum Concentration (rats; IV, 8 hours): 70,532.4 pg/ml
EPO / G-CSF Serum Concentration (rats; IV, 24 hours): 5,738.6 pg/ml
EPO / G-CSF Serum Concentration (rats; IV, 48 hours): 233.8 pg/mL
EPO / G-CSF Serum Concentration (rats; IV, 5 days): 60.4 pg/mL
EPO / G-CSF Serum Concentration (rats; SC, 2 hours): 80.3 pg/mL
EPO / G-CSF Serum Concentration (rats; SC, 8 hours): 164.2 pg/mL
EPO / G-CSF Serum Concentration (rats; SC, 24 hours): OSC
EPO / G-CSF Serum Concentration (rats; SC, 48 hours): OSC
EPO / G-CSF Serum Concentration (rats; SC, 5 days): OSC
protein expression detectable to (rats; subcutaneous and intramuscular): at least 8 hours
protein translation and cytokine production [1]: most protein translation (G-CSF) and the least amount of cytokine
Average Serum Concentration ([2]; 8 hours): 2,506 pg/ml
Female NHP Serum Concentration ([2]; 8 hours): 3289 pg/mL
Male NHP Serum Concentration ([2]; 8 hours): 1722 pg/mL
Average Serum Concentration ([2]; 24 hours): 515 pg/mL
Female NHP Serum Concentration ([2]; 24 hours): 722 pg/mL
Male NHP Serum Concentration ([2]; 24 hours): 307 pg/mL
Average Serum Concentration ([2]; 48 hours): 0 pg/mL
Female NHP Serum Concentration ([2]; 48 hours): 0 pg/mL
Male NHP Serum Concentration ([2]; 48 hours): 0 pg/mL
Average Serum Concentration ([2]; 72 hours): 0 pg/mL
Female NHP Serum Concentration ([2]; 72 hours): 0 pg/mL
Male NHP Serum Concentration ([2]; 72 hours): 0 pg/mL
Average Serum Concentration ([2]; Pre-bleed): 0 pg/mL
Female NHP Serum Concentration ([2]; Pre-bleed): 0 pg/mL
Male NHP Serum Concentration ([2]; Pre-bleed): 0 pg/mL
protein expression detectable out to ([2]; NHP IV, 0.05 mg/kg): 24 h
increase in neutrophil count above control (mice): four fold increase
G-CSF protein in rat serum (Sprague Dawley rats): 19.37 pg/mL
